In experiment [1] the target is Phosphorylated MST2 kinase domain (pMST2-K) (human) (UniProt Q13188).
The target in experiment [2] is Phosphorylated MST2 kinase linker (pMST2-KL) (human) (UniProt Q13188).
The target in experiment [3] is Phosphorylated full-length MST2 (pMST2-FL) (human) (UniProt Q13188).
Experiment [4] has as its target T1, Unphosphorylated full-length MST2 (MST2-FL) (human) (UniProt Q13188).
T1 sequence: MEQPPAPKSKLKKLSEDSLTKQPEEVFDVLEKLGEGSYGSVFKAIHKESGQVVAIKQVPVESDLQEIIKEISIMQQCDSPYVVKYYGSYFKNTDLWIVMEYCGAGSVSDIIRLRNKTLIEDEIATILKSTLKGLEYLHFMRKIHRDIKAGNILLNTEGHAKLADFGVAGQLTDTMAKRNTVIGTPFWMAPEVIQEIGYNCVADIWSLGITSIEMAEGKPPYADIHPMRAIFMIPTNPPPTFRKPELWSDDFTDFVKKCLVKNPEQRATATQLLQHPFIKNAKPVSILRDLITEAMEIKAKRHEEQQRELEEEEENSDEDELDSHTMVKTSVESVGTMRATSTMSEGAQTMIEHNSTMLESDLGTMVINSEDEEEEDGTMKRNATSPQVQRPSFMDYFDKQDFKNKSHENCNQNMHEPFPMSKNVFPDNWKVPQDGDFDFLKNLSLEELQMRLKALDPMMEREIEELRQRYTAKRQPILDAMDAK

This passage reports Km^app peptide, radiometric kinase assay (steady state, 30°C) results from PMC10167949.

The star is where a group is joined. Biotin = O=C1N[C@H]2[C@H](CS[C@H]2CCCCC(=O)*)N1

B1: peptide substrate (Biotin-…-NH2) (peptide)
peptide: Biotin-GGGENWYNTLKRKK-NH2
SMILES: CC(C)C[C@H](NC(=O)[C@@H](NC(=O)[C@H](CC(N)=O)NC(=O)[C@H](Cc1ccc(O)cc1)NC(=O)[C@H](Cc1c[nH]c2ccccc12)NC(=O)[C@H](CC(N)=O)NC(=O)[C@H](CCC(=O)O)NC(=O)CNC(=O)CNC(=O)CNC(=O)CCCC[C@@H]1SC[C@@H]2NC(=O)N[C@@H]21)[C@@H](C)O)C(=O)N[C@@H](CCCCN)C(=O)N[C@@H](CCCNC(=N)N)C(=O)N[C@@H](CCCCN)C(=O)N[C@@H](CCCCN)C(N)=O
As to B1, the Km^app peptide, radiometric kinase assay (steady state, 30°C) in experiment [1] was determined as 27 µM; in experiment [2], 35 µM; in experiment [3], 32 µM; in experiment [4], 139 µM.
